One experiment concerns PN7 tumors. The experiment is described as follows: Serial transplantation of cells from treated PN7 tumors (tumorigenicity). As to conditions: 90 cells injected, 40 days growth with no treatment; vs control antibody. It is filed as in vivo, NOD-SCID mice. As for the experimental part:
The PN7 tumors described above were processed to yield single cell suspensions. Mouse cells were depleted from the cell mixtures using biotinylated anti-H2K^d and anti-CD45 antibodies and streptavidin-conjugated magnetic beads. The remaining human tumor cells were serially transplanted into a new cohort of mice. 90 tumor cells from each treatment group were injected into the flanks of NOD-SCID mice (n=10 mice per group). Tumors were allowed to grow for 40 days with no treatment and tumor volumes were measured with electronic calipers.

Experiment [1] deals with PN31 pancreatic tumor cells. The experiment is described as follows: PN31 pancreatic tumor xenograft growth in NOD/SCID mice. Particulars: vs control; antibodies 15 mg/kg once a week, gemcitabine once a week, intraperitoneal. It counts as in vivo. As for the experimental part: Dissociated PN31 pancreatic tumor cells (1×10^5cells) were injected subcutaneously into the flanks of 6-8 week old NOD/SCID mice. Tumors were allowed to grow for 61 days until they reached an average volume of 120 mm^3. The mice were randomized (n=10 per group) and treated with anti-RSPO1 antibody 89M5, anti-RSPO2 antibody 130M23, gemcitabine, a combination of 89M5 and gemcitabine, a combination of 130M23 and gemcitabine, or control antibody 1B7.11. Antibodies were dosed at 15 mg/kg once a week, and gemcitabine was dosed at […] once a week. Administration of the antibodies and gemcitabine was performed via injection into the intraperitoneal cavity. Tumor growth was monitored and tumor volumes were measured with electronic calipers at specific time points. Data are expressed as mean±S.E.M.

Experiment [2] relates to RSPO1-induced β-catenin signaling. The experiment is described as follows: TOPflash luciferase assay in HEK-293 cells, Wnt3a plus human RSPO1. It counts as cell-based. As to conditions: Wnt3a 5 ng/ml, RSPO1 10 ng/ml; antibodies 10 to 0.625 μg/ml. As for the experimental part: HEK-293 cells were transfected with a 6×TCF-luciferase reporter vector (TOPflash, Millipore, Billerica, Mass.). After 24-48 hrs, the transfected HEK-293 cells were incubated with a combination of Wnt3a (5 ng/ml) and human RSPO1 (10 ng/ml, R&D BioSystems) in the presence of anti-RSPO1 antibodies 89M2, 89M4, 89M5, 89M7, 89M19, and 89M25, or 2 irrelevant control antibodies 254M14 and 254M26 (2-fold dilutions at 10 μg/ml to 0.625 μg/ml). The cells were incubated for 16 hours and luciferase activity was measured using Steady-Glo® Luciferase Assay System according to the manufacturer's instructions (Promega, Madison, Wis.).

In experiment [3] the target is T1, human RSPO1 (Homo sapiens, UniProt Q2MKA7).
T1 construct: followed by the two furin-like domains of RSPO1 (aa 34-135); expressed in transfected cells; host or cells: HEK-293
The experiment is described as follows: FACS screening of hybridoma supernatants on HEK-293 cells expressing FLAG-RSPO1furin-CD4TM-GFP. It counts as binding. The text has this: Antibodies were generated against recombinant human RSPO1 protein amino acids 31-263 (R&D Systems, Minneapolis, Minn.). Mice (n=3) were immunized with RSPO1 protein using standard techniques. Sera from individual mice were screened against RSPO1 approximately 70 days after initial immunization using FACS analysis. The animal with the highest antibody titer was selected for final antigen boost after which spleen cells were isolated for hybridoma production. SP2/0 cells were used as fusion partners for the mouse spleen cells. Hybridoma cells were plated at 1 cell per well in 96 well plates, and the supernatants were screened against human RSPO1 by FACS analysis.
For FACS screening of anti-RSPO1 antibodies a chimeric fusion protein enabling cell surface expression of the N-terminal furin-like domains of human RSPO1 was constructed.
HEK-293 cells were transfected with FLAG-RSPOlfurin-CD4TM-GFP. After 48 hours, transfected cells were suspended in ice cold PBS containing 2% FBS and heparin and incubated on ice in the presence of 50 μl of hybridoma supernatants for 30 minutes. A second incubation with 100 μl PE-conjugated […] secondary antibody was performed to detect cells bound by antibody. Cells were incubated with an anti-FLAG antibody (Sigma-Aldrich, St. Louis, Mo.) as a positive control and an anti-PE antibody as a negative control. The cells were analyzed on a FACSCalibur instrument (BD Biosciences, San Jose, Calif.) and the data was processed using FlowJo software.

In another experiment the test system is OV19 ovarian tumor cells. The experiment is described as follows: OV19 ovarian tumor xenograft growth in NOD/SCID mice. As to conditions: day 35, vs control antibody; antibodies 15 mg/kg once a week, intraperitoneal. It counts as in vivo. As for the experimental part: Dissociated OV19 ovarian tumor cells (1×10^5cells) were injected in the mammary fat pads of 6-8 week old NOD/SCID mice. Tumors were allowed to grow for 45 days until they reached an average volume of 134 mm^3. The mice were randomized (n=10 per group) and treated with anti-RSPO1 antibody 89M5, 89M25, taxol, a combination of 89M5 and taxol, a combination of 89M25 and taxol, or control antibody 1B7.11. Antibodies were dosed at 15 mg/kg once a week, and taxol was dosed at […] once a week. Administration of the antibodies and taxol was performed via injection into the intraperitoneal cavity. Tumor growth was monitored and tumor volumes were measured with electronic calipers at the indicated time points. Data are expressed as mean±S.E.M.

Another experiment addresses T2, binding of RSPO1 to LGR5 (Homo sapiens, UniProt Q2MKA7).
T2 construct: full-length human RSPO1, RSPO2, RSPO3 and RSPO4 were ligated in-frame to a human Fc region; made in house; host or cells: RSPO1-Fc: insect cells (baculovirus); LGR5 construct: transiently transfected HEK-293
The experiment is described as follows: FACS: blocking of soluble RSPO1-Fc binding to LGR5 on HEK-293 cells. As to conditions: RSPO1-Fc 10 μg/ml, antibodies 10 μg/ml. As for the experimental part: HEK-293 cells were transiently transfected with the FLAG-LGR5-CD4TM-GFP construct (previously described in Example 2). After 48 hours, transfected cells were suspended in ice cold PBS containing 2% FBS and heparin and incubated on ice in the presence of RSPO1-Fc protein (10 μg/ml) and antibodies 89M2, 89M4, 89M5, 89M7, 89M19 or 89M25 (10 μg/ml). A second incubation with 100 μl PE-conjugated anti-human Fc secondary antibody was performed to detect cells bound by the RSPO1-Fc fusion protein. The cells were analyzed on a FACSCalibur instrument (BD Biosciences, San Jose, Calif.) and the data was processed using FlowJo software.
On the technique in general: Flow cytometry measures light scatter and fluorescence of single cells or particles in a stream.

The target of experiment [4] is T1, human RSPO1. The experiment is described as follows: FACS binding of 89M5 and humanized 89M5 to HEK293 cells expressing FLAG-RSPO1furin-CD4TM-GFP. Particulars: five-fold serial dilutions. As for the experimental part:
HEK293 cells were transiently transfected with an expression vector encoding FLAG-RSPO1furin-CD4TM-GFP. As described in Example 5, FLAG-RSPO1furin-CD4TM-GFP is a chimeric fusion protein enabling cell surface expression of the N-terminal furin-like domains of human RSPO1. FLAG-RSPO1 furin-CD4TM-GFP transfected cells were incubated in the presence of anti-RSPO1 antibody 89M5 or humanized anti-RSPO1 antibody h89M5-H2L2. Five-fold serial dilutions of each antibody were examined for their ability to bind to the RSPO1 expressing cells. The cells were stained with Phycoerythrin conjugated anti-IgG to reveal bound antibody. The cells were analyzed on a FACSCalibur instrument (BD Biosciences, San Jose, Calif.) and the data was processed using FlowJo software.

The target in the next experiment is T3, LGR5 (Homo sapiens, UniProt O75473).
T3 construct: ligating amino acids 22-564 of human LGR5 to an N-terminal FLAG tag; expressed in transfected cells; host or cells: HEK-293
T3 sequence (O75473 22-564): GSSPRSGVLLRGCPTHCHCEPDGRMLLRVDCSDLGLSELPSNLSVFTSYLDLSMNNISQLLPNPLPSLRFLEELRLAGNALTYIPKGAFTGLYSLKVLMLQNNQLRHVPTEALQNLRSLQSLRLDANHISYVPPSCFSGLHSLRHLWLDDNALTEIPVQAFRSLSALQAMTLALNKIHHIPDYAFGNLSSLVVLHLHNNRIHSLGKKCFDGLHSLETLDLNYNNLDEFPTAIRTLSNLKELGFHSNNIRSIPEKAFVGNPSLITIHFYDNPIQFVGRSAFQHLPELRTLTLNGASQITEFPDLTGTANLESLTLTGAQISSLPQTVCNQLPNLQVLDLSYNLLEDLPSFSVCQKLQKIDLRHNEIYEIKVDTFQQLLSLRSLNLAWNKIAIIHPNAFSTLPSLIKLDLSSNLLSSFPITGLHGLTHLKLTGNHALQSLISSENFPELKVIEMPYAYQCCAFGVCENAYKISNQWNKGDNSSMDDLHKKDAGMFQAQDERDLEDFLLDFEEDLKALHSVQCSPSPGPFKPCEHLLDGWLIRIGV
The experiment is described as follows: FACS binding of RSPO-Fc fusion proteins to LGR5 expressed on HEK-293 cells. As to conditions: Fc fusion proteins 10 μg/ml. From the text:
A cell surface LGR5 protein was generated by ligating amino acids 22-564 of human LGR5 to an N-terminal FLAG tag and to the transmembrane domain of CD4 and a C-terminal GFP protein tag using standard recombinant DNA techniques (FLAG-LGR5-CD4TM-GFP). RSPO-Fc constructs were generated using standard recombinant DNA techniques. Specifically, full-length human RSPO1, RSPO2, RSPO3 and RSPO4 were ligated in-frame to a human Fc region and the recombinant RSPO-Fc proteins were expressed in insect cells using baculovirus. The fusion proteins were purified from the insect medium using protein A chromatography.
HEK-293 cells were transiently transfected with the FLAG-LGR5-CD4TM-GFP construct. After 48 hours, transfected cells were suspended in ice cold PBS containing 2% FBS and heparin and incubated on ice in the presence of 10 μg/ml RSPO1-Fc, RSPO2-Fc, RSPO3-Fc, RSPO4-Fc, or FZD8-Fc fusion proteins for 15 minutes. A second incubation with 100 μl PE-conjugated anti-human Fc secondary antibody was performed to detect cells bound by the Fc fusion proteins. Cells were incubated with an anti-FLAG antibody (Sigma-Aldrich, St. Louis, Mo.) as a positive control and with an anti-PE antibody as a negative control. The cells were analyzed on a FACSCalibur instrument (BD Biosciences, San Jose, Calif.) and the data was processed using FlowJo software.

T1 sequence (Q2MKA7 34-135): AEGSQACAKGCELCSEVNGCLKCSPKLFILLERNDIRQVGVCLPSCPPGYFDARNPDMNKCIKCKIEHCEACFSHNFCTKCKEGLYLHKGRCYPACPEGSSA
T2 sequence (Q2MKA7 21-263): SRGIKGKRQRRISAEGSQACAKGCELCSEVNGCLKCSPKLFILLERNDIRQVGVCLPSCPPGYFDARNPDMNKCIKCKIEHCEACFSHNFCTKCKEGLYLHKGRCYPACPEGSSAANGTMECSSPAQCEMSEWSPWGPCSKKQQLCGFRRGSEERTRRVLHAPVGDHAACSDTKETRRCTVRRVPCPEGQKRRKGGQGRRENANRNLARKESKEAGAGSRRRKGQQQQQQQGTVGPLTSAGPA

On to `Nc1ccn([C@@H]2O[C@H](CO)[C@@H](O)C2(F)F)c(=O)n1` [gemcitabine, reference compound], for which the “tumorigenicity of cells isolated from treated mice” value in the experiment on PN7 tumors was “decrease in tumorigenicity”. For the same molecule, the “reduction in tumor growth” value in experiment [1] came out at 49%.

B1: 89M25: anti-RSPO1 monoclonal antibody; same heavy and light chain variable regions as 89M5 (antibody, V domains shown)
VH: EVQLQQSGPELVKPGASVKISCKTSGYTFTGYTMHWVRQSHGKTLEWIGGINPNNGGTTYNQNFKGKATLTVEKSSTTAYLELRSLTSEDSALYYCARKEFSDGYYFFAYWGQGTLVTVSA
VL: DIVMTQSHKFMSTSVGDRVNITCKASQDVIFAVAWYQQKPGQSPKLLIYWASTRHTGVPDRFTGSVSGTDYTLTISSVQAEDLALYYCQQHYSTPWTFGGGTKLEIK
Consider B1, for which the “blocking of RSPO1-induced β-catenin signaling” value in experiment [2] is on record as “blocked”. Besides, the “binding to RSPO1 (FACS)” value with human RSPO1 [3] is “bound”. Moreover, in the experiment on OV19 ovarian tumor cells, the “reduction in tumor growth” value was 25%. In addition, the “blocking of binding of RSPO1 to LGR5” value with binding of RSPO1 to LGR5 was “blocked”.

B2: h89M5-H2L2: humanized anti-RSPO1 antibody; heavy chain SEQ ID NO:68, light chain SEQ ID NO:69 (antibody)
heavy: QVQLVQSGAEVKKPGASVKVSCKTSGYTFTGYTMHWVRQAPGQRLEWMGGINPNNGGTTYNQNFKGRVTITRDTSASTAYMELSSLRSEDTAVYYCARKEFSDGYYFFAYWGQGTLVTVSSASTKGPSVFPLAPCSRSTSESTAALGCLVKDYFPEPVTVSWNSGALTSGVHTFPAVLQSSGLYSLSSVVTVPSSNFGTQTYTCNVDHKPSNTKVDKTVERKCCVECPPCPAPPVAGPSVFLFPPKPKDTLMISRTPEVTCVVVDVSHEDPEVQFNWYVDGVEVHNAKTKPREEQFNSTFRVVSVLTVVHQDWLNGKEYKCKVSNKGLPAPIEKTISKTKGQPREPQVYTLPPSREEMTKNQVSLTCLVKGFYPSDIAVEWESNGQPENNYKTTPPMLDSDGSFFLYSKLTVDKSRWQQGNVFSCSVMHEALHNHYTQKSLSLSPGK
light: DIQMTQSPSSLSASVGDRVTITCKASQDVIFAVAWYQQKPGKAPKLLIYWASTRHTGVPSRFSGSGSGTDYTLTISSLQPEDFATYYCQQHYSTPWTFGGGTKVEIKRTVAAPSVFIFPPSDEQLKSGTASVVCLLNNFYPREAKVQWKVDNALQSGNSQESVTEQDSKDSTYSLSNTLTLSKADYEKHKVYACEVTHQGLSSPVTKSFNRGEC
modifications: h89M5-H2L2 Heavy chain amino acid sequence; h89M5-H2L2 Light chain amino acid sequence
Turning to B2, the “binding to human RSPO1 (FACS)” value with human RSPO1 [4] is “bind”.

B3: RSPO3: full-length human RSPO3 ligated to a human Fc region (protein)
chain: QNASRGRRQRRMHPNVSQGCQGGCATCSDYNGCLSCKPRLFFALERIGMKQIGVCLSSCPSGYYGTRYPDINKCTKCKADCDTCFNKNFCTKCKSGFYLHLGKCLDNCPEGLEANNHTMECVSIVHCEVSEWNPWSPCTKKGKTCGFKRGTETRVREIIQHPSAKGNLCPPTNETRKCTVQRKKCQKGERGKKGRERKRKKPNKGESKEAIPDSKSLESSKEIPEQRENKQQQKKRKVQDKQKSVSVSTVH
In the case of B3, the “binding to LGR5 expressed on the surface of HEK-293 cells” value with LGR5 is reported as “bound”.

B4: RSPO4: full-length human RSPO4 ligated to a human Fc region (protein)
chain: LNRRKKQVGTGLGGNCTGCIICSEENGCSTCQQRLFLFIRREGIRQYGKCLHDCPPGYFGIRGQEVNRCKKCGATCESCFSQDFCIRCKRQFYLYKGKCLPTCPPGTLAHQNTRECQGECELGPWGGWSPCTHNGKTCGSAWGLESRVREAGRAGHEEAATCQVLSESRKCPIQRPCPGERSPGQKKGRKDRRPRKDRKLDRRLDVRPRQPGLQP
modifications: left off: a dimerising Fc or GST
notes: full-length human RSPO4 ligated to a human Fc region
Take B4: in the experiment with LGR5, the “binding to LGR5 expressed on the surface of HEK-293 cells” value was “bound”.
